The nanobody polyreactivity screen of Harvey et al. (2022)

assay: yeast display, Sf9 membrane polyspecificity reagent, FACS + sequencing; frameworks hold sequencing errors
Method in brief: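 Genes from sorted yeast were amplified by colony PCR, read by MiSeq 2 × 250 sequencing and filtered on CDR length. These cells carried a synthetic nanobody library in Saccharomyces cerevisiae BJ5465 and were sorted by FACS into low and high (top ~1%) gates on anti-HA and streptavidin fluorescence. Polyreactivity is labelled according to the gate of origin.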

Sequence | polyreactivity (PSR sort gate)
QVQLVESGGGLVQAGGSLRLSCAASGRIFPYNAMGWYRQAPGKERELVAAIDWRDNTYYADSVKGRFSISRDNAKNTVYLQMNSLKPEDTAVYYCNVDYTDYFLNKYDYWGQGTQVTVSS | low polyreactivity
QVQLVESGGGLVQAGGSLRLSCAASGRIFPYNVMGWYRQAPGKERELVAAISSGGTTDYADSVKGRFTISRDNAKNTVYLQMNSLKPEDTAVYYCAATYVYWTWGYDYWGQGTQVTVSS | low polyreactivity
QVQLVESGGGLVQAGGSLRLSCAASGRIFPYYAMGWYRQAPGKERELVAAISRIGGRTYYADSVKGRFTISRDNAKNTVYLQMNSLKPEDTAVYYCAAGYGGTFNCGQGTQVTVSS | high polyreactivity
QVQLVESGGGLVQAGGSLRLSCAASGRIFPYYTMGWYREAPGKERELVATITTGGSTNYADSVKGRFTISRDNAENTVYLQMNSLKPEDTAVYYCNKDGVVEVRFTGRQEYDYWGQGTQVTVSS | low polyreactivity
QVQLVESGGGLVQAGGSLRLSCAASGRIFQANAMGWYRQAPGKERELVASISSGGSTNYADSVKGRFTISRDNAKNTVYLQMNSLKPEDTAVYYCAARHPSSAYWVGYYWYDYWGQGTQVTVSS | low polyreactivity
QVQLVESGGGLVQAGGSLRLSCAASGRIFQDYARGWYRQAPGKERELVPSIRWSSTSTYYADSVKGRFTISRDNAKNTVYLQMNSLKPEDTAVYYCNARYPYYTRTRDGRMYYWGQGTQVTVSS | low polyreactivity
QVQLVESGGGLVQAGGSLRLSCAASGRIFQFNVMGWYRQAPGKERELVAAISRGGGITDYADSVKGRFTISRDNAKNTVYLQMNSLKPEDTAVYYCAAVLPARGYYWGQGTQVTVSS | high polyreactivity
QVQLVESGGGLVQAGGSLRLSCAASGRIFQGYAMGWYRQAPGKERELLAAITVRCGTTYYADSVKGRFTISRDNAKNTVYLQMNSLKPEDTAVYYCNAAKLIHGYQSVYPGSNSRYYYWGQGTQVTVSS | low polyreactivity
QVQLVESGGGLVQAGGSLRLSCAASGRIFQGYAMGWYRQAPGKERELVAAIRTGGSTNYADSVKGRFTISRDNAKNTVYLQMNSLKPEDTAVYYCNAVGQLYFYFPRGDYWGQGTQVTVSS | low polyreactivity
QVQLVESGGGLVQAGGSLRLSCAASGRIFQQYAMGWSRKAPGKERELVAAISRNGGSTYYADSVKGRFTISRDNAKNTVYLQMNRLKTEDTAVYYCNARRNAASTLRKDYGYWGQGTQVSVSS | high polyreactivity
QVQLVESGGGLVQAGGSLRLSCAASGRIFQRYAMGWYRQAPGKERELVAVITKRGGNTYYADSVKGRFTISRDNAKNTVYLQMNSLKPEDTAVYYCANRSGRSTGDYWGQGTQVTVSS | high polyreactivity
QVQLVESGGGLVQAGGSLRLSCAASGRIFQRYTMGWYRQAPGKEWEFVAAITYSGGSTHYADSVKGRFTISRDNAKNTVYLQMNSLKPEDTAVYYCATDYIRYRWYVFYGWLWRYDYWGQGTQVTVSS | low polyreactivity
QVQLVESGGGLVQAGGSLRLSCAASGRIFQYYAMGWYRQAPGKERELVAAISSRGGSTTYADSVKGRFTISRDNAKNTVYLQMNSLKPEDTAVYYCARDWYYYPQYRQRYYYWGQGTQVTVSS | high polyreactivity
QVQLVESGGGLVQAGGSLRLSCAASGRIFRAIAMGLYRQAPGKERELVAAISFSGGGTYYADSVKGRFTISRDNAKYTVYLQMNSLKPEDTAVYYCAADQFWGGEEYDYWGQGTQVTVSS | low polyreactivity
QVQLVESGGGLVQAGGSLRLSCAASGRIFRAYAMGWYRQAPGKERELVASITGSGGSTYYADSVKGRFTISRDNAKNTVYLQMNSLKPEDTAVYYCAVASYRVWGVGTRFYYWGQGTQVTVSS | high polyreactivity
QVQLVESGGGLVQAGGSLRLSCAASGRIFRAYARGWYRQAPGKERELVAAITRGGGTYYADSVKGRFTISRDNAKNSVYLQMNSLKPEDTAVYYCAAGRQRGPGYYFTFDYWGQGTQVTVSS | high polyreactivity
QVQLVESGGGLVQAGGSLRLSCAASGRIFRAYVMGWYRQAPGKERELVATIDSGTSTYYADSVKGRFTISRDNAKNTVYLQMNSLKPEDTAVYYCAVPSHSRVPESFDYWGQGTQVTVSS | low polyreactivity
QVQLVESGGGLVQAGGSLRLSCAASGRIFRDYAMGWYRQAPGKERELVAAISLSGGSTYYADSVKGRFTISRDIAKNTVYLQVNSLKPEDTAVYYCAAKYYYGGNGYWGQGTQVNVSS | low polyreactivity
QVQLVESGGGLVQAGGSLRLSCAASGRIFRDYTMGWYRTAPGKERELVAAITSGGSTYYADSVKGRFTISRDTAKNTVYLQMNSLKPEDTAVYYCNADGYVPGVDYWGLGTQVTVSS | low polyreactivity
QVQLVESGGGLVQAGGSLRLSCAASGRIFREYAMGWYRQAPGKERELVAAISSGASTYADSVKGRFTISRDNAKNTVYLQMNSLKPEDTAVYYCAKDIKLGPVGHSKYHRYDYWGQGTQVTVSS | low polyreactivity
QVQLVESGGGLVQAGGSLRLSCAASGRIFRFNAMGWYRQAPGKERELVAAITGSGGTTFYADSVKGRFTISRDNAKNTVYLQMNSLKPEDTAVYYCARQRTVKKYYYWGQGTQVTVSS | high polyreactivity
QVQLVESGGGLVQAGGSLRLSCAASGRIFRFYAMGCYIQAPGKERELVAVITARGGSTYYADSVKGRFTISRDNAKNNVYLQMNSLKPEDTAVYYCASTRVKGYTVVKSRRGEIDYWGQGTQVTVSS | high polyreactivity

Sequence | polyreactivity (PSR sort gate)
QVQLVESGGGLVQAGGSLRLSCAASGRIFRFYAMGWYRQAPGKERELVAAISSSAGGTYADSVKGRFTISRDYAKNTVYLQMNSRKPEDTAVYYCAARAYALYDWGQGTQVTVSS | high polyreactivity
QVQLVESGGGLVQAGGSLRLSCAASGRIFRGNAMGWFRQAPGKERELVASISTSGVRTFYADSVKGRFTISRDNAKNTVYLQMNSLKPEDTAVYDCNKRDRYRMYGFNYWGQGTQVTVSS | high polyreactivity
QVQLVESGGGLVQAGGSLRLSCAASGRIFRGNAMGWYRQAPGKERELVATITKRGGSTYYADSVKGRFTISRDNAKNTVYLQMNSLKPEDTAVYYCNTRTYGYLTQKYDYWGQGTQVTVSS | high polyreactivity
QVQLVESGGGLVQAGGSLRLSCAASGRIFRGNVMGWYRQAPGTERELVAAISGSGGSTYYADSVKGRFTISRDNAKNTVYLQMNSLKPEDTAVYYCAAGTAKTPRRSVGYWGQGTQVTVSS | high polyreactivity
QVQLVESGGGLVQAGGSLRLSCAASGRIFRGYAMGWYRQAPGKERELVAAISQSGSSTYYADSVKGRFTISRDNAKNTVYLQMNSLKPEDTAVYYCAVKYLKHFGYWGQGTQVTVSS | high polyreactivity
QVQLVESGGGLVQAGGSLRLSCAASGRIFRGYAMGWYRQAPGKERELVAAISRGGNTDYADSVKGRFTISRDNAKNTVYLQMNSLKPEDTAVYYCAVGYVSYRKFYLYNSWGQGTQVTVSS | high polyreactivity
QVQLVESGGGLVQAGGSLRLSCAASGRIFRGYAMGWYRQAPGKERELVADISSGASTNYADSVKGRFTISRDNAKKTVYFQMNSLKPEDTAVYYCAAQHSVLAYFEDDYWGQGTQVTVSS | low polyreactivity
QVQLVESGGGLVQAGGSLRLSCAASGRIFRGYAMGWYRQAPGKERELVADISSGASTNYADSVKGRFTISRDNAKNTVYFQMNSLKPEDTAVYYCAAQHSVLAYFEYDYWGQGTQVTVSS | low polyreactivity
QVQLVESGGGLVQAGGSLRLSCAASGRIFRGYAMGWYRQAPGTERELVAAITRGGSTKYADSVKGRFTISRDNAKNTVYLQMNSLKPEDTAVYYCAKDSYPYVPLYRSRSLYGYWGQGTQVTVSS | high polyreactivity
QVQLVESGGGLVQAGGSLRLSCAASGRIFRHYGMGWYRQAPGKERELVARITRSGGSTYYADSVKGRFTISRDNAKNTVYLQMTSLKPEDTAVYYCAAFTYGESWYDYWGQGTQVTVSS | low polyreactivity
QVQLVESGGGLVQAGGSLRLSCAASGRIFRIYAMGWYRQAPGKERELVARITYSGGSTYYADSVKGRFTISRDNAKNTVYLQMNSLKPEDTAVYFCAADWLGYQYGYWGQGTQVTVSS | low polyreactivity
QVQLVESGGGLVQAGGSLRLSCAASGRIFRIYTMGWYRQAPGKERELVAAITKSGGSTSYADSVKGRFTISRDNAKNTVYLQMNILKPEDTAVYYCNAKGWTRPPGYDYWGQGTQVTVSS | high polyreactivity
QVQLVESGGGLVQAGGSLRLSCAASGRIFRIYTMVWYRQAPGKERELVAVINSSGGRTYYADSVKGRFTISRDNAQNTVYLQMNSLKPEDTAVYYCNAVFGGGTMDYWGQGTQVTVSS | high polyreactivity
QVQLVESGGGLVQAGGSLRLSCAASGRIFRKYAMGWSRQAPGKEREFVAAISSSGGITYYADSVKGRFTISRDNAKNTVYLQMNSLKPEDTAVYYCADLYPQHRYDYWGQGTQVTVSS | high polyreactivity
QVQLVESGGGLVQAGGSLRLSCAASGRIFRKYAMGWYIQAPGKEREFVASIRSRGDSTYYADSVKGRFTISRDNAKNTVYLQMNSMKPEDTAVYYCAAVSGSGYDYWGQGTQVTVSS | high polyreactivity
QVQLVESGGGLVQAGGSLRLSCAASGRIFRLYAMGWSRQAPGKERELVAAISSSGGDTYYADSVKGRFTISRDNAKNTVYLQMNSLKPEDTAVYYCNARKRYANVHYNYWGQGTQVTVSS | high polyreactivity
QVQLVESGGGLVQAGGSLRLSCAASGRIFRLYTMGWYRPAPGKERELVAAISGSGGRTYYADSVKGRFTISRDNAKNTVYLQMNSLKPEDTAVYYCAKVGYKSPYLYSQHYTGFGYWGQGTQVTVSS | high polyreactivity
QVQLVESGGGLVQAGGSLRLSCAASGRIFRPNAMGWYRQAPGKERELVAAITSNGGRTYYADSVKGRFTISRDNAKNTVYLQMNSLKPEDTAVYYCNAAPFRSGYGYWGQGTQVTVSS | high polyreactivity
QVQLVESGGGLVQAGGSLRLSCAASGRIFRPYAMGWYRQAPGKERELVAAISVSGVITYYADSVKGRFTISRDNAKNTVYLQMNSLKPEDTAVYYCARRSSTRYFYGWYDYWGQGTQVTVSS | low polyreactivity
QVQLVESGGGLVQAGGSLRLSCAASGRIFRPYAMGWYRQAPGKERELVASISWRGSSTYYADSVKGRFTISRDNAKNTVYLQMNSLKPEDTAVYYCAARRYPTSGYAYWGQGTQVTVSS | high polyreactivity
QVQLVESGGGLVQAGGSLRLSCAASGRIFRRNAMGWYRQAPGKEREFVAAISYRGGSTYYADSVKGRFTISRDNAKNTVYLQMNSLKPEDTAVYYCAATGYGSAYNPYDHWGQGTQVTVSS | high polyreactivity
